{"source": "patent US20230374148A1", "about": "“BINDING MOLECULES THAT MULTIMERISE CD45” (UCB BIOPHARMA SRL, priority 2020, published 2023)", "molecules": {"B1": {"name": "4133-6294 BYbe: anti-CD45 BYbe (Fab-scFv): 4133 Fab HC-G4S linker-6294 scFv heavy chain paired with 4133 light chain (antibody)", "heavy": "QEQLVESGGGLVQPEGSLTLTCTASGFSFSGNYYMCWVRQAPGKGLEWIGCLYTGSSGSTYYASWAKGRFTISKTSSTTVTLQMTSLTAADTATYFCARDLGYEIDGYGGLWGQGTLVTVSSGQPKAPSVFPLAPCCGDTPSSTVTLGCLVKGYLPEPVTVTWNSGTLTNGVRTFPSVRQSSGLYSLSSVVSVTSSSQPVTCNVAHPATNTKVDKTVAPSTCSKPGGGGSGGGGSEVQLVESGAELARPGASVKMSCKASGYTFTSYTMHWVKQRPGQCLEWIGYINPSSGYTEYNQKFKDKTTLTADKSSSTAYLQLSSLTSEDSAVYYCARVGDGFYPSWLAYWGQGTLVTVSSGGGGSGGGGSGGGGSGGGGSDIQMTQSPKFLLVSAGDRVTITCKASQSVRNDVAWYQQKPGQSPKLLIFYASKRYTGVPDRFTGSGYGTDFTFTISTVQAEDLAVYFCQQDYSSPTTFGCGTKLEIK", "light": "AQVLTQTPSPVSAVVGGTVSISCQASQSVYNNNNLSWYQQKPGQPPKLLIYDASKLASGVPSRFKGSGSGTQFTLTISGVQCDDAATYYCLGGYYSSGWYFAFGGGTKVVVKRTPVAPTVLIFPPAADQVATGTVTIVCVANKYFPDVTVTWEVDGTTQTTGIENSKTPQNSADCTYNLSSTLTLTSTQYNSHKEYTCKVTQGTTSVVQSFNRGDC"}}, "key": {"Human PBMC": {"system": "Human PBMC", "experiment": "Apoptosis of PBMCs: reduction of PBMC cell subsets", "format": "cell-based", "conditions": "24 hrs; for Bottom level of % subset cell reduction / Top level of % subset cell reduction: donor UCB Cone-802", "protocol": "Human PBMC derived from blood leukocyte platelet-apheresis cones (NHSBT Oxford) were banked as frozen aliquots. Prior to an assay being performed, 2 vials of frozen cells, each containing 5×10^7 cells in 1 ml, were thawed in a 37° C. water bath and then added to 50 ml complete media (RPMI 1640+2 mM GlutaMAX+1% Pen/Strep, all previous supplied by Invitrogen, +10% Fetal Bovine Serum (FBS), Sigma Aldrich). Cells were spun (500 g, 5 min, at RT) and re-suspended in 30 ml complete media to wash and spun again. Cells were resuspended in 10 ml complete media and then counted using a ChemoMetec NucleoCounter NC-3000. 10^5 cells per well in 100 μl were then added to each well of a Corning Costar 96-well, cell culture treated, U-shaped-bottom microplate (cat no. 07-200-95). The plate was rested in a 37° C., 5% CO2 incubator for 2 hrs. PBMCs from two donors, UCB-Cones 801 and 802 were used in this assay.\nSimilarly, a 1500 nM stock of 4133-6294 BYbe in complete media was prepared. The microplate was incubated for 1 hr at 37° C., 5% CO2. Following the incubation, Fab-KD-Fab and BYbe reagents were then serially diluted in complete media 1 in 5, nine times to produce to form a 10-point dose curve.\nFollowing the incubation, the plate was spun at 500 g, 5 min, RT, the buffer was aspirated with a BioTek ELx405 microplate washer, and the cells were re-suspended in FACS buffer (PBS+1% bovine serum albumin (BSA)+0.1% NaN3+2 mM EDTA, Sigma Aldrich) to wash and then re-spun and buffer was aspirated to leave the cells in 20 μl residual media. 20 μl of cell-specific marker antibody cocktail solution was added to the wells and incubated for 1 hr at 4° C. The antibody cocktail is detailed in Table 4 below.\nCells were analysed live using the Intellicyt iQue Screener PLUS. Live cell counts were extracted as metrics and graphical representations generated using Graphpad Prism version 8.1 (Graphpad). Asymmetric (five parameter) curve fitting was applied to derive maximal % cell reduction and EC50 values."}, "M2 macrophages": {"system": "M2 macrophages", "experiment": "Caspase-3/7 induction, IncuCyte, M2", "format": "cell-based, human", "conditions": "over 6 days, BYbe 250-2 nM, Camptothecin, Staurosporine 5 μM", "protocol": "Human PBMC derived from blood leukocyte platelet-apheresis cones (NHSBT Oxford) were banked as frozen aliquots. Prior to an assay being performed, 2 vials of frozen cells, each containing 5×10^7 cells in 1 ml, were thawed in a 37° C. water bath and then added to 50 ml complete media (RPMI 1640+2 mM GlutaMAX+1% Pen/Strep, all previous supplied by Invitrogen, +10% Fetal Bovine Serum (FBS), Sigma Aldrich). Cells were spun (500 g, 5 min, at RT) and re-suspended in 30 ml complete media to wash and spun again. Cells were resuspended in 20 ml MACS buffer (PBS, pH 7.2, 0.5% bovine serum albumin (BSA), and 2 mM EDTA, Sigma Aldrich) and counted on a ChemoMetec NucleoCounter NC-3000 to determine concentration and viability. PBMCs from one donor (UCB-Cones 802) was used in this assay. Monocyte isolation was performed using the Pan Monocyte Isolation Kit (Miltenyi Biotec, cat no. 130-096-537) and LS columns (Miltenyi Biotec, cat no 130-042-401) according to manufacturer's instructions. 100 μl of cells were removed and stored on ice to check monocyte purity post isolation. Isolated cells were stained with BV421 mouse anti-human CD14 (BD Biosciences, cat no. 563743) to check for purity of monocytes using FACS. M-CSF (Sigma Aldrich, cat no. SRP3110) and GM-CSF (R&D Systems, cat no. 215-GM/CF) were prepared at 100 μg/ml. Cells were prepared in M1 media (complete media+50 ng/ml GM-CSF) or M2 media (complete media+50 ng/ml M-CSF) at a concentration of 2.5×10^5 cells/ml. 200 μl cells were plated into two Corning 96 well Black polystyrene microplates (Sigma Aldrich) and incubated at 37° C., 5% CO2. Following a 3-day incubation at 37° C., 5% CO2, the plate was spun (500 g, 5 min, RT), buffer was aspirated, the cells were washed once with PBS and then resuspended in 200 μL of M1 media or M2 media. […] The caspase dye was measured with the green laser (350 ms) and the cytotox dye was measured with a red laser (650 ms). The green dye signal was analysed using Incucyte® Zoom2016B. […]"}}}
{"molecule": "B1", "values": [{"measurement": "almost maximal reductions in B cells", "setting": "Human PBMC; B cells in PBMC, stated for both reagents", "result": 87, "unit": "%"}, {"measurement": "Bottom level of % subset cell reduction", "setting": "Human PBMC; B cells", "result": 18.74, "unit": "%"}, {"measurement": "Top level of % subset cell reduction", "setting": "Human PBMC; B cells", "result": 87.09, "unit": "%"}, {"measurement": "Bottom level of % subset cell reduction", "setting": "Human PBMC; CD4+ Memory", "result": 24, "unit": "%"}, {"measurement": "Top level of % subset cell reduction", "setting": "Human PBMC; CD4+ Memory", "result": 99.76, "unit": "%"}, {"measurement": "Bottom level of % subset cell reduction", "setting": "Human PBMC; CD4+ Naive", "result": 18.53, "unit": "%"}, {"measurement": "Top level of % subset cell reduction", "setting": "Human PBMC; CD4+ Naive", "result": 99.04, "unit": "%"}, {"measurement": "Bottom level of % subset cell reduction", "setting": "Human PBMC; CD4+", "result": 20.22, "unit": "%"}, {"measurement": "Top level of % subset cell reduction", "setting": "Human PBMC; CD4+", "result": 99.2, "unit": "%"}, {"measurement": "Bottom level of % subset cell reduction", "setting": "Human PBMC; CD8+", "result": 0.543, "unit": "%"}, {"measurement": "Top level of % subset cell reduction", "setting": "Human PBMC; CD8+", "result": 98.36, "unit": "%"}, {"measurement": "levels of Caspase-3/7", "setting": "M2 macrophages", "result": "in-line with NegCtrl BYbe-treated and untreated macrophages"}]}
